± gives the standard deviation of the averaged measurements.
B1: library; a variant is named by its letters at N, in order (parent)
chain: GCUGUCACCGGUGUAUUACCCUAGUGGUCGACCGGUCUGAUGAGUCUNNNNNNAGACGAAACAGC

Assays:
hypoxanthine [1] = variants of: B1; test: normalized RNA/DNA level with ligand (relative to sTRSVctl = 100) (log10 (% of sTRSVctl)); ligand: hypoxanthine (xanthine aptamer); higher = less ribozyme self-cleavage, higher mRNA level; settings: ligand concentration (+) RNA-Seq: 5 mM, HEK293T, reporter: mCherry (pCS4076), ligand present: yes
Summary of the method: (§1)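 HEK293T cells received ligand, where used, 1 h before being transfected with 4 µg per 6-well well of library plasmids encoding reporter-linked ribozyme switches. After 72 h, RNA was extracted with EDTA and sequenced. RNA level was derived from RNA reads per DNA read, normalized to a spiked-in non-cleaving sequence or the top sequences, then scaled and log-transformed. Values were ×100 then log10, the top set was 25 sequences, and the minimum was 100 DNA reads.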

hypoxanthine [2] = variants of: B1; test: normalized RNA/DNA level without ligand (relative to sTRSVctl = 100) (log10 (% of sTRSVctl)); ligand: hypoxanthine (xanthine aptamer); higher = less ribozyme self-cleavage, higher mRNA level; settings: HEK293T, reporter: mCherry (pCS4076), ligand present: no
Summary of the method: as §1

| Variant | normalized RNA/DNA level with ligand (log10) (hypoxanthine [1]) | normalized RNA/DNA level without ligand (log10) (hypoxanthine [2]) |
| --- | --- | --- |
| UUAGCA | 1.95 ± 0.025 | 1.85 ± 0.025 |
| UUAGCG | 1.906 ± 0.018 | 1.8 ± 0.038 |
| UUAGCU | 1.97 ± 0.021 | 1.89 ± 0.023 |
| UUAGCC | 1.95 ± 0.065 | 1.88 ± 0.025 |
| UUCCUU | 1.92 ± 0.081 | 1.891 ± 0.0051 |
| UUCCUC | 1.97 ± 0.038 | 2.04 ± 0.025 |
| UUCCUA | 1.94 ± 0.016 | 1.89 ± 0.0066 |
| AUCAGC | 1.94 ± 0.024 | 1.95 ± 0.047 |
| AUCCUU | 1.98 ± 0.027 | 1.91 ± 0.055 |
| AUCCUA | 1.94 ± 0.062 | 1.9 ± 0.043 |
| GUAUUC | 1.95 ± 0.073 | 1.931 ± 0.013 |
| GUAUUA | 1.92 ± 0.03 | 1.842 ± 0.017 |
| GUAUUU | 1.94 ± 0.079 | 1.859 ± 0.018 |
| AUCGUG | 1.82 ± 0.047 | 1.4 ± 0.076 |
| AUCGUC | 2.03 ± 0.048 | 1.977 ± 0.0058 |
| AUCGUU | 1.98 ± 0.08 | 1.87 ± 0.043 |
| AUCGUA | 1.898 ± 0.017 | 1.74 ± 0.024 |
| AUAGUU | 1.9009 ± 0.0014 | 1.84 ± 0.055 |
| AUAGUC | 1.931 ± 0.016 | 1.923 ± 0.019 |
| AUCCAC | 1.95 ± 0.056 | 1.8068 ± 0.00014 |
| GUCACA | 1.917 ± 0.002 | 1.81 ± 0.022 |
| GUCACC | 1.92 ± 0.059 | 1.9 ± 0.079 |
| GUCACG | 1.9 ± 0.025 | 1.54 ± 0.055 |

| Variant | normalized RNA/DNA level with ligand (log10) (hypoxanthine [1]) | normalized RNA/DNA level without ligand (log10) (hypoxanthine [2]) |
| --- | --- | --- |
| GUCACU | 1.977 ± 0.014 | 1.91 ± 0.041 |
| UUAUAG | 1.89 ± 0.019 | 1.67 ± 0.04 |
| UUAUAU | 1.93 ± 0.027 | 1.85 ± 0.019 |
| UUAUAA | 1.92 ± 0.0059 | 1.76 ± 0.041 |
| AUCCGU | 1.96 ± 0.0099 | 1.91 ± 0.018 |
| AUCCGG | 1.954 ± 0.0038 | 1.7 ± 0.051 |
| GUCGGU | 1.91 ± 0.051 | 1.83 ± 0.035 |
| GUCCAU | 1.95 ± 0.028 | 1.852 ± 0.0035 |
| UUCAUA | 1.88 ± 0.019 | 1.8411 ± 0.0016 |
| UUCAUU | 1.95 ± 0.025 | 1.91 ± 0.071 |
| UUCAUG | 1.95 ± 0.029 | 1.78 ± 0.056 |
| CUCAUG | 1.96 ± 0.042 | 1.91 ± 0.024 |
| CUCAUU | 1.99 ± 0.067 | 2.01 ± 0.08 |
| CUAGAG | 1.88 ± 0.018 | 1.64 ± 0.023 |
| AUACGU | 1.91 ± 0.032 | 1.84 ± 0.042 |
| GUCUAC | 1.94 ± 0.043 | 1.8 ± 0.018 |
| GUCUAU | 1.94 ± 0.059 | 1.82 ± 0.026 |
| AUAUAU | 1.9 ± 0.028 | 1.79 ± 0.045 |
| GUCGCG | 1.93 ± 0.039 | 1.55 ± 0.055 |
| GUCGCU | 2.04 ± 0.038 | 1.904 ± 0.011 |
| GUCGCC | 1.9 ± 0.05 | 1.91 ± 0.08 |
| CUCACA | 1.911 ± 0.016 | 1.83 ± 0.021 |
| CUCACG | 1.93 ± 0.024 | 1.913 ± 0.0027 |

| Variant | normalized RNA/DNA level with ligand (log10) (hypoxanthine [1]) | normalized RNA/DNA level without ligand (log10) (hypoxanthine [2]) |
| --- | --- | --- |
| UUAGAU | 1.9278 ± 0.00084 | 1.766 ± 0.0096 |
| UUAGAG | 1.832 ± 0.0063 | 1.556 ± 0.011 |
| UUAGAC | 1.9 ± 0.083 | 1.82 ± 0.022 |
| GUCCUU | 1.94 ± 0.11 | 1.95 ± 0.017 |
| GUCCUG | 1.88 ± 0.024 | 1.52 ± 0.022 |
| GUCCUC | 1.9 ± 0.016 | 1.93 ± 0.057 |
| GUCCUA | 1.95 ± 0.069 | 1.934 ± 0.015 |
| UUCGUC | 2.0298 ± 0.00024 | 2.03 ± 0.041 |
| UUCGUG | 1.964 ± 0.019 | 1.7 ± 0.041 |
| UUCGUU | 1.94 ± 0.11 | 1.84 ± 0.054 |
| UUCGCU | 1.983 ± 0.015 | 1.87 ± 0.049 |
| UUCGCG | 1.9036 ± 0.0015 | 1.84 ± 0.044 |
| UUCGCC | 1.95 ± 0.046 | 1.856 ± 0.015 |
| GUAUCC | 1.96 ± 0.025 | 1.86 ± 0.043 |
| GUAUCG | 1.9 ± 0.042 | 1.57 ± 0.017 |
| GUAUCA | 1.96 ± 0.049 | 1.88 ± 0.02 |
| CUCGGA | 1.99 ± 0.03 | 1.84 ± 0.057 |
| UUCGAG | 1.88 ± 0.038 | 1.544 ± 0.0067 |
| UUCGAC | 1.9 ± 0.074 | 1.781 ± 0.0058 |
| UUCCCU | 2 ± 0.052 | 1.935 ± 0.0058 |
| UUCCCA | 1.92 ± 0.032 | 1.91 ± 0.037 |
| UUCCCC | 1.93 ± 0.043 | 1.8846 ± 0.0013 |
| AUAGGU | 1.908 ± 0.016 | 1.587 ± 0.015 |

| Variant | normalized RNA/DNA level with ligand (log10) (hypoxanthine [1]) | normalized RNA/DNA level without ligand (log10) (hypoxanthine [2]) |
| --- | --- | --- |
| AUAGGC | 1.91 ± 0.025 | 1.776 ± 0.0031 |
| AUCUAU | 1.93 ± 0.032 | 1.83 ± 0.074 |
| AUCUAC | 1.9 ± 0.12 | 1.855 ± 0.013 |
| AUCUAG | 1.91 ± 0.033 | 1.61 ± 0.019 |
| UUACUC | 1.995 ± 0.0094 | 2.02 ± 0.038 |
| UUACUU | 1.93 ± 0.025 | 1.93 ± 0.043 |
| UUACUA | 1.93 ± 0.039 | 1.887 ± 0.011 |
| AUAGCC | 1.936 ± 0.0032 | 1.82 ± 0.028 |
| AUAGCU | 1.935 ± 0.018 | 1.83 ± 0.005 |
| UUCCAG | 1.9 ± 0.051 | 1.68 ± 0.064 |
| UUCCAA | 1.92 ± 0.097 | 1.8417 ± 0.0007 |
| UUCCAU | 1.97 ± 0.074 | 1.882 ± 0.0027 |
| AUCUCA | 1.96 ± 0.071 | 1.89 ± 0.043 |
| CUCGUA | 1.91 ± 0.02 | 1.907 ± 0.015 |
| CUCGUG | 1.94 ± 0.028 | 1.81 ± 0.025 |
| CUCGUU | 1.94 ± 0.019 | 2.03 ± 0.063 |
| AUCGCG | 1.863 ± 0.0079 | 1.409 ± 0.0031 |
| AUCGCU | 1.91 ± 0.024 | 1.84 ± 0.028 |
| AUCGCA | 1.9253 ± 0.0018 | 1.77 ± 0.028 |
| UUAGUU | 1.952 ± 0.0013 | 1.85 ± 0.038 |
| UUAGUA | 1.939 ± 0.017 | 1.81 ± 0.039 |
| UUAGUG | 1.89 ± 0.048 | 1.67 ± 0.043 |
| UUAGUC | 1.98 ± 0.0064 | 1.976 ± 0.015 |

| Variant | normalized RNA/DNA level with ligand (log10) (hypoxanthine [1]) | normalized RNA/DNA level without ligand (log10) (hypoxanthine [2]) |
| --- | --- | --- |
| GUCAAC | 1.95 ± 0.02 | 1.748 ± 0.0031 |
| GUCAAU | 1.925 ± 0.015 | 1.8 ± 0.054 |
| AUCAAC | 1.99 ± 0.031 | 1.84 ± 0.028 |
| AUCAAU | 1.89 ± 0.038 | 1.78 ± 0.058 |
| AUCAAA | 1.921 ± 0.011 | 1.79 ± 0.034 |
| GUAGAU | 1.87 ± 0.092 | 1.758 ± 0.00084 |
| GUAGAC | 1.89 ± 0.041 | 1.69 ± 0.025 |
| CUCCCU | 1.94 ± 0.039 | 1.97 ± 0.043 |
| CUCCCA | 1.991 ± 0.0032 | 1.87 ± 0.046 |
| UUCAGC | 1.94 ± 0.026 | 1.93 ± 0.02 |
| UUCAGU | 1.947 ± 0.013 | 1.83 ± 0.036 |
| UUCAGA | 1.96 ± 0.037 | 1.823 ± 0.0059 |
| UUCAGG | 1.92 ± 0.025 | 1.79 ± 0.053 |
| CUCUAG | 1.9 ± 0.0079 | 1.78 ± 0.011 |
| CUCUAC | 1.966 ± 0.013 | 1.87 ± 0.019 |
| CUCUAA | 1.93 ± 0.051 | 1.8 ± 0.054 |
| CUCUAU | 2.03 ± 0.035 | 1.848 ± 0.0086 |
| GUAUAA | 1.87 ± 0.052 | 1.78 ± 0.02 |
| GUCGAU | 1.93 ± 0.07 | 1.76 ± 0.039 |
| AUAUCU | 1.89 ± 0.026 | 1.844 ± 0.016 |
| AUAUCA | 1.936 ± 0.0032 | 1.81 ± 0.021 |
| AUAUCC | 1.938 ± 0.015 | 1.876 ± 0.018 |
| AUAUUA | 1.868 ± 0.0053 | 1.82 ± 0.028 |

Reference: the supplement of paper PMC6757056
